{"source": "paper PMC12311796", "binders": {"B1": {"name": "iM (structured_DNA)", "DNA": "CCCCCTCCCCCTCCCCCTCCCCC"}, "B2": {"name": "dsCntr (dsDNA)", "DNA 1": "ATCACACTTGGCTTTCAACCAGTCTATGCTGCAGCTGATCA", "DNA 2": "TGATCAGCTGCAGCATAGACTGGTTGAAAGCCAAGTGTGAT"}, "B3": {"name": "dsG4 (mixed)", "DNA 1": "ATCACACTTGGCAGGGAGGGAGGGAGGGATGCAGCTGATCA", "DNA 2": "TGATCAGCTGCATCCCTCCCTCCCTCCCTGCCAAGTGTGAT"}, "B4": {"name": "G4 (SE G4) (structured_DNA)", "DNA": "GGGAGGGAGGGAGGG"}, "B5": {"name": "ds26 (structured_DNA)", "DNA": "CAATCGGATCGAATTCGATCCGATTG"}}, "key": {"[1]": {"target": "T1, BRD4 N-terminal tandem bromodomain fragment (BD1-BD2) (Homo sapiens, UniProt O60885 49-460)", "experiment": "SPR; 1-200 uM ODN; SPR: 10 mM HEPES pH 7.4, 150 mM NaCl, 50 uM EDTA, 0.005% P20, 24 C; MST: PBS, 0.05% Tween-20, 22 C; NMR: 20 mM Na-phosphate pH 7.5, 80 mM KCl, 5% D2O, 25 C; nucleosome: 20 mM Tris-HCl pH 8.0, NaCl 2 M to 250 mM", "settings": "protein: recombinant, tags: N-terminal His8 (RED-tris-NTA label for MST; Ni-NTA capture for SPR)"}, "[2]": {"target": "T1, BRD4 N-terminal tandem bromodomain …", "experiment": "SPR; no ligand; SPR: 10 mM HEPES pH 7.4, 150 mM NaCl, 50 uM EDTA, 0.005% P20, 24 C; MST: PBS, 0.05% Tween-20, 22 C; NMR: 20 mM Na-phosphate pH 7.5, 80 mM KCl, 5% D2O, 25 C; nucleosome: 20 mM Tris-HCl pH 8.0, NaCl 2 M to 250 mM", "settings": "protein: recombinant; tags: N-terminal His8 (RED-tris-NTA label for MST; Ni-NTA capture for SPR); duplex flanks around G4 with opposing C-rich strand; about 50% G4 folded without PDS"}, "[3]": {"target": "T1, BRD4 N-terminal tandem bromodomain …", "experiment": "SPR; SPR: 10 mM HEPES pH 7.4, 150 mM NaCl, 50 uM EDTA, 0.005% P20, 24 C; MST: PBS, 0.05% Tween-20, 22 C; NMR: 20 mM Na-phosphate pH 7.5, 80 mM KCl, 5% D2O, 25 C; nucleosome: 20 mM Tris-HCl pH 8.0, NaCl 2 M to 250 mM", "settings": "protein: recombinant; tags: N-terminal His8 (RED-tris-NTA label for MST; Ni-NTA capture for SPR); parallel 3-quartet G4; unimolecular fraction about 50% in the NMR sample"}, "[4]": {"target": "T1, BRD4 N-terminal tandem bromodomain …", "experiment": "NMR; 80 mM KCl; 1:2 BRD4:G4 model; SPR: 10 mM HEPES pH 7.4, 150 mM NaCl, 50 uM EDTA, 0.005% P20, 24 C; MST: PBS, 0.05% Tween-20, 22 C; NMR: 20 mM Na-phosphate pH 7.5, 80 mM KCl, 5% D2O, 25 C; nucleosome: 20 mM Tris-HCl pH 8.0, NaCl 2 M to 250 mM", "settings": "protein: recombinant; tags: N-terminal His8 (RED-tris-NTA label for MST; Ni-NTA capture for SPR); parallel 3-quartet G4; unimolecular fraction about 50% in the NMR sample"}}, "data": [{"binder": "B1", "values": [{"measurement": "binding result", "setting": "[1]; i-motif", "value": "no binding"}]}, {"binder": "B2", "values": [{"measurement": "binding result", "setting": "[1]; blunt", "value": "no binding"}]}, {"binder": "B3", "values": [{"measurement": "Kd", "setting": "[2]", "value": "5 ± 3", "unit": "µM"}]}, {"binder": "B4", "values": [{"measurement": "Kd", "setting": "[3]", "value": "5 ± 3", "unit": "µM"}, {"measurement": "Kd", "setting": "[4]", "value": "6 ± 1", "unit": "µM"}]}, {"binder": "B5", "values": [{"measurement": "binding result", "setting": "[1]; hairpin", "value": "no binding"}]}]}
